This is an account of results in paper PMC6480404.

In series [1] the target is SpyCas9;AcrIIA2b (AcrIIA2b.3) (Streptococcus pyogenes;Listeria phage?, UniProt Q99ZW2;PDB:6MCC_3 1-1368;1-130, |). Nature of the series: cryo-EM.
Series [2] has as its target SpyCas9;AcrIIA2 (AcrIIA2a.1) (Streptococcus pyogenes;Listeria …, UniProt Q99ZW2;PDB:6MCB_3 1-1368;1-123, |). Kind of series: cryo-EM.
For series [3], the target named is T1, AcrIIA2 (AcrIIA2a.1) (Listeria monocytogenes phage/prophage, UniProt PDB:6MCB_3 1-123).
T1 sequence: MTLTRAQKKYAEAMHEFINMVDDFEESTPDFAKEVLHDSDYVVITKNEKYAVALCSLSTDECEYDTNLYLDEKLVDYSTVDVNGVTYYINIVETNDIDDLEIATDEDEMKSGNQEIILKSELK
Kind of series: size-exclusion chromatography. In general terms: Size exclusion chromatography separates by hydrodynamic size, large species first.

B1: sgRNA (structured_RNA)
RNA: GGCGCAUAAAGAUGAGACGCGUUUUAGAGCUAUGCUGUUUUGAAAAAAACAGCAUAGCAAGUUAAAAUAAGGCUAGUCCGUUAUCAACUUGAAAAAGUGGCACCGAGUCGGUGCUU
In the case of B1, the binding result in series [1] is given as “binds”; in series [2], “binds”; in series [3], “no binding”.
